According to article PMC8411744, “Engineering a Highly Efficient Carboligase for Synthetic One-Carbon Metabolism” (ACS Catalysis, 2021):

Key:
[1] = target: T1, MeOXC (OXC, oxalyl-CoA decarboxylase) (Methylorubrum extorquens, UniProt C5AX46, E135G/A415C/Y497F/S568G); assay: X-ray crystal structure, […] Å; format: binding; details: MeOXC4; Mg2+; C-terminus beyond E567 modelled
T1 construct: gene MexAM1_META1p0990; recombinant, produced in E. coli; purified; homotetramer; ThDP and Mg2+ dependent
Excerpt: Substitution E135G gave rise to a cavity in the ThDP binding pocket

[2] = target: T2, MeOXC (OXC, oxalyl-CoA decarboxylase) (Methylorubrum extorquens, UniProt C5AX46); assay: X-ray crystal structure, […] Å; format: binding; details: Mg2+; C-terminal 16 residues modelled
T2 construct: gene MexAM1_META1p0990; recombinant, produced in E. coli; purified; homotetramer; ThDP and Mg2+ dependent

[3] = substrate: C=O; assay: steady-state kinetics, glycolyl-CoA synthase (carboligation) activity; format: biochemical, Methylorubrum extorquens; details: co-substrate formyl-CoA, apparent
Excerpt: (§1) steady-state kinetics, glycolyl-CoA synthase (carboligation) activity on MeOXC (OXC, oxalyl-CoA decarboxylase)

[4] = substrate: CC(C)(COP(=O)(O)OP(=O)(O)OC[C@H]1O[C@@H](n2cnc3c(N)ncnc32)[C@H](O)[C@@H]1OP(=O)(O)O)[C@@H](O)C(=O)NCCC(=O)NCCSC=O; assay: as above; format: biochemical, Methylorubrum extorquens; details: co-substrate formaldehyde, apparent
Excerpt: as §1

[5] = substrate: CC(C)(COP(=O)(O)OP(=O)(O)OC[C@H]1O[C@@H](n2cnc3c(N)ncnc32)[C@H](O)[C@@H]1OP(=O)(O)O)[C@@H](O)C(=O)NCCC(=O)NCCSC(=O)C(=O)O; assay: oxalyl-CoA decarboxylation kinetics; format: biochemical, Methylorubrum extorquens; details: MeOXC4
[6] = substrate: CC(C)(COP(=O)(O)OP(=O)(O)OC[C@H]1O[C@@H](n2cnc3c(N)ncnc32)[C@H](O)[C@@H]1OP(=O)(O)O)[C@@H](O)C(=O)NCCC(=O)NCCSC(=O)CO; assay: CoA transfer from glycolyl-CoA to formate, Michaelis-Menten; format: biochemical, Clostridium aminobutyricum; details: formate 25 mM as acceptor
Excerpt: CoA transfer from glycolyl-CoA to formate, Michaelis-Menten on AbfT (4-hydroxybutyrate CoA-transferase) | AbfT).

Cc1ncc(C[n+]2csc(CCOP(=O)(O)OP(=O)(O)O)c2C)c(N)n1 [ThDP]
X-ray crystal structure, 2.4 Å [1]: Active site of MeOXC4. Substitution E135G gave rise to a cavity in the ThDP binding pocket
X-ray crystal structure, 1.9 Å [2]: The overall structure of MeOXC with bound ThDP (orange)

B1: MeOXC (OXC, oxalyl-CoA decarboxylase) (Methylorubrum extorquens AM1; A415C/E135G/S568G/Y497F) (protein)
chain: MTVQAQNIDAITAGAMPHEEPELTDGFHLVIDALKLNGIETIYNVPGIPITDLGRLAQAEGLRVISFRHEQNAGNAAAIAGFLTKKPGICLTVSAPGFLNGLTALANATTNCFPMILISGSSEREIVDLQQGDYGEMDQLAIAKPLCKAAFRVLHAADIGIGVARAIRAAVSGRPGGVYLDLPAKLFSQVIDADLGARSLVKVIDAAPAQLPAPAAIARALDVLKSAERPLIILGKGAAYAQADEAVRALVEESGIPYVPMSMAKGLLPDTHPLSAGAARSTALKDSDVVLLVGARLNWLLSHGKGKTWGEPGSKRFIQIDIEPREMDSNVEIVAPVVGDIGSCVEALLDGIRKDWKGAPSNWLETLRGKREANIAKMAPKLMKNSSPMCFHSALGALRTVIKERPDAILVNEGCNTLDLARGIIDMYQPRKRLDVGTWGVMGIGMGFAVAAAVETGKPVLAVEGDSAFGFSGMEVETICRYELPVCIVIFNNNGIFRGTDTDPTGRDPGTTVFVKNSRYDKMMEAFGGVGVNVTTPDELKRAVDEAMNSGKPTLINAEIDPAAGSEGGNIGSLNPQSTLKKK
notes: recombinant, produced in E. coli; purified; homotetramer; ThDP and Mg2+ dependent
Km ([3]; MeOXC4): 5000 ± 1000 µM
kcat ([3]; MeOXC4): 2 ± 0.2 s⁻¹
kcat/Km ([3]; MeOXC4): 400 M⁻¹ s⁻¹
Km ([4]; MeOXC4): 220 ± 30 µM
kcat ([4]; MeOXC4): 2.4 ± 0.2 s⁻¹
kcat/Km ([4]; MeOXC4): 11000 M⁻¹ s⁻¹
Km [5]: 122 ± 16 µM
kcat [5]: 0.21 ± 0.01 s^–1

B2: MeOXC (OXC, oxalyl-CoA decarboxylase) (Methylorubrum extorquens AM1) (protein)
chain: MTVQAQNIDAITAGAMPHEEPELTDGFHLVIDALKLNGIETIYNVPGIPITDLGRLAQAEGLRVISFRHEQNAGNAAAIAGFLTKKPGICLTVSAPGFLNGLTALANATTNCFPMILISGSSEREIVDLQQGDYEEMDQLAIAKPLCKAAFRVLHAADIGIGVARAIRAAVSGRPGGVYLDLPAKLFSQVIDADLGARSLVKVIDAAPAQLPAPAAIARALDVLKSAERPLIILGKGAAYAQADEAVRALVEESGIPYVPMSMAKGLLPDTHPLSAGAARSTALKDSDVVLLVGARLNWLLSHGKGKTWGEPGSKRFIQIDIEPREMDSNVEIVAPVVGDIGSCVEALLDGIRKDWKGAPSNWLETLRGKREANIAKMAPKLMKNSSPMCFHSALGALRTVIKERPDAILVNEGANTLDLARGIIDMYQPRKRLDVGTWGVMGIGMGFAVAAAVETGKPVLAVEGDSAFGFSGMEVETICRYELPVCIVIFNNNGIYRGTDTDPTGRDPGTTVFVKNSRYDKMMEAFGGVGVNVTTPDELKRAVDEAMNSGKPTLINAEIDPAAGSESGNIGSLNPQSTLKKK
notes: as for B1
Km ([3]; concentrations in Table S4): 100000 ± 20000 µM
kcat ([3]; concentrations in Table S4): 0.2 ± 0.01 s⁻¹
kcat/Km ([3]; concentrations in Table S4): 2 M⁻¹ s⁻¹
Km ([4]; concentrations in Table S4): 3000 ± 2000 µM
kcat ([4]; concentrations in Table S4): 0.31 ± 0.08 s⁻¹
kcat/Km ([4]; concentrations in Table S4): 100 M⁻¹ s⁻¹

B3: MeOXC (OXC, oxalyl-CoA decarboxylase) (Methylorubrum extorquens AM1; A415C) (protein)
chain: MTVQAQNIDAITAGAMPHEEPELTDGFHLVIDALKLNGIETIYNVPGIPITDLGRLAQAEGLRVISFRHEQNAGNAAAIAGFLTKKPGICLTVSAPGFLNGLTALANATTNCFPMILISGSSEREIVDLQQGDYEEMDQLAIAKPLCKAAFRVLHAADIGIGVARAIRAAVSGRPGGVYLDLPAKLFSQVIDADLGARSLVKVIDAAPAQLPAPAAIARALDVLKSAERPLIILGKGAAYAQADEAVRALVEESGIPYVPMSMAKGLLPDTHPLSAGAARSTALKDSDVVLLVGARLNWLLSHGKGKTWGEPGSKRFIQIDIEPREMDSNVEIVAPVVGDIGSCVEALLDGIRKDWKGAPSNWLETLRGKREANIAKMAPKLMKNSSPMCFHSALGALRTVIKERPDAILVNEGCNTLDLARGIIDMYQPRKRLDVGTWGVMGIGMGFAVAAAVETGKPVLAVEGDSAFGFSGMEVETICRYELPVCIVIFNNNGIYRGTDTDPTGRDPGTTVFVKNSRYDKMMEAFGGVGVNVTTPDELKRAVDEAMNSGKPTLINAEIDPAAGSESGNIGSLNPQSTLKKK
notes: as for B1
Km ([3]; MeOXC1): 30000 ± 2000 µM
kcat ([3]; MeOXC1): 0.34 ± 0.01 s⁻¹
kcat/Km ([3]; MeOXC1): 10 M⁻¹ s⁻¹
Km ([4]; MeOXC1): 160 ± 50 µM
kcat ([4]; MeOXC1): 0.23 ± 0.01 s⁻¹
kcat/Km ([4]; MeOXC1): 1400 M⁻¹ s⁻¹

B4: MeOXC (OXC, oxalyl-CoA decarboxylase) (Methylorubrum extorquens AM1; A415C/S568G) (protein)
chain: MTVQAQNIDAITAGAMPHEEPELTDGFHLVIDALKLNGIETIYNVPGIPITDLGRLAQAEGLRVISFRHEQNAGNAAAIAGFLTKKPGICLTVSAPGFLNGLTALANATTNCFPMILISGSSEREIVDLQQGDYEEMDQLAIAKPLCKAAFRVLHAADIGIGVARAIRAAVSGRPGGVYLDLPAKLFSQVIDADLGARSLVKVIDAAPAQLPAPAAIARALDVLKSAERPLIILGKGAAYAQADEAVRALVEESGIPYVPMSMAKGLLPDTHPLSAGAARSTALKDSDVVLLVGARLNWLLSHGKGKTWGEPGSKRFIQIDIEPREMDSNVEIVAPVVGDIGSCVEALLDGIRKDWKGAPSNWLETLRGKREANIAKMAPKLMKNSSPMCFHSALGALRTVIKERPDAILVNEGCNTLDLARGIIDMYQPRKRLDVGTWGVMGIGMGFAVAAAVETGKPVLAVEGDSAFGFSGMEVETICRYELPVCIVIFNNNGIYRGTDTDPTGRDPGTTVFVKNSRYDKMMEAFGGVGVNVTTPDELKRAVDEAMNSGKPTLINAEIDPAAGSEGGNIGSLNPQSTLKKK
notes: as for B1
Km ([3]; MeOXC2): 12000 ± 3000 µM
kcat ([3]; MeOXC2): 0.57 ± 0.05 s⁻¹
kcat/Km ([3]; MeOXC2): 50 M⁻¹ s⁻¹
Km ([4]; MeOXC2): 90 ± 20 µM
kcat ([4]; MeOXC2): 0.43 ± 0.02 s⁻¹
kcat/Km ([4]; MeOXC2): 5100 M⁻¹ s⁻¹

B5: MeOXC (OXC, oxalyl-CoA decarboxylase) (Methylorubrum extorquens AM1; A415C/E135G/S568G) (protein)
chain: MTVQAQNIDAITAGAMPHEEPELTDGFHLVIDALKLNGIETIYNVPGIPITDLGRLAQAEGLRVISFRHEQNAGNAAAIAGFLTKKPGICLTVSAPGFLNGLTALANATTNCFPMILISGSSEREIVDLQQGDYGEMDQLAIAKPLCKAAFRVLHAADIGIGVARAIRAAVSGRPGGVYLDLPAKLFSQVIDADLGARSLVKVIDAAPAQLPAPAAIARALDVLKSAERPLIILGKGAAYAQADEAVRALVEESGIPYVPMSMAKGLLPDTHPLSAGAARSTALKDSDVVLLVGARLNWLLSHGKGKTWGEPGSKRFIQIDIEPREMDSNVEIVAPVVGDIGSCVEALLDGIRKDWKGAPSNWLETLRGKREANIAKMAPKLMKNSSPMCFHSALGALRTVIKERPDAILVNEGCNTLDLARGIIDMYQPRKRLDVGTWGVMGIGMGFAVAAAVETGKPVLAVEGDSAFGFSGMEVETICRYELPVCIVIFNNNGIYRGTDTDPTGRDPGTTVFVKNSRYDKMMEAFGGVGVNVTTPDELKRAVDEAMNSGKPTLINAEIDPAAGSEGGNIGSLNPQSTLKKK
notes: as for B1
Km ([3]; MeOXC3): 12000 ± 3000 µM
kcat ([3]; MeOXC3): 1.6 ± 0.1 s⁻¹
kcat/Km ([3]; MeOXC3): 130 M⁻¹ s⁻¹
Km ([4]; MeOXC3): 170 ± 40 µM
kcat ([4]; MeOXC3): 1.6 ± 0.1 s⁻¹
kcat/Km ([4]; MeOXC3): 9400 M⁻¹ s⁻¹

B6: AbfT (4-hydroxybutyrate CoA-transferase) (Clostridium aminobutyricum) (protein)
chain: MDWKKIYEDRTCTADEAVKSIKSGDRVLFAHCVAEPPVLVEAMVANAAAYKNVTVSHMVTLGKGEYSKPEYKENFTFEGWFTSPSTRGSIAEGHGQFVPVFFHEVPSLIRKDIFHVDVFMVMVSPPDHNGFCCVGVSSDYTMQAIKSAKIVLAEVNDQVPVVYGDTFVHVSEIDKFVETSHPLPEIGLPKIGEVEAAIGKHCASLIEDGSTLQLGIGAIPDAVLSQLKDKKHLGIHSEMISDGVVDLYEAGVIDCSQKSIDKGKMAITFLMGTKRLYDFAANNPKVELKPVDYINHPSVVAQCSKMVCINACLQVDFMGQIVSDSIGTKQFSGVGGQVDFVRGASMSIDGKGKAIIAMPSVAKKKDGSMISKIVPFIDHGAAVTTSRNDADYVVTEYGIAEMKGKSLQDRARALINIAHPDFKDELKAEFEKRFNAAF
notes: purified
Km [6]: 12 ± 1 µM
kcat [6]: 0.40 ± 0.01 s^–1
